The supplement of paper PMC12042874
± gives the uncertainty stated by the source.

Assay: amyloid nucleation score (Sup35N fusion, yeast selection) (log enrichment); library NNK2; higher = more nucleation; inactive = no reads after selection
Method in brief: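 The nucleation score is the log enrichment of output over input reads, calculated with DiMSum and centred on the mode score of non-aggregating sequences. Sequences with under 100 input reads were excluded. Reads came from Illumina sequencing of plasmid inserts from psi-negative yeast expressing Sup35N fused to peptides of 20 random codons, induced 24 hours with 100 μM copper sulfate and grown 7 days at 30°C without adenine and uracil.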

Substance: LFNSAVLK
- amyloid nucleation score: -0.092 ± 0.33

Substance: WSYHF
- amyloid nucleation score: -0.305 ± 0.8

Substance: LWAYPLSMLWGKLFMDGMLL
- amyloid nucleation score: -0.486 ± 0.27

Substance: YIPKLLRCGRGCHYILSYAD
- amyloid nucleation score: 0.065 ± 0.62

Substance: CWFPWSSYLRNMFELPKTWL
- amyloid nucleation score: 0.529 ± 0.55

Substance: QYVLLTLCVRIIHGSND
- amyloid nucleation score: inactive

Substance: FVSYED
- amyloid nucleation score: -0.793 ± 1.1

Substance: VWIFSSSIKTTLYKHLLSNT
- amyloid nucleation score: -0.539 ± 0.74

Substance: LKIYLCIPHRRL
- amyloid nucleation score: 0.082 ± 1.1

Substance: RNAQDKESKIGTVSDSNHWV
- amyloid nucleation score: 0.107 ± 0.36

Substance: VISNHPETTDTNRVLLYVLG
- amyloid nucleation score: 0.411 ± 0.53

Substance: VHELCTYNLFEPVCSLVWYR
- amyloid nucleation score: 9.545 ± 0.05

Substance: FYMLASPSSTLDSTPKVRSC
- amyloid nucleation score: -0.665 ± 1.1

Substance: LPHESFNQHGKLFMAD
- amyloid nucleation score: 0.054 ± 0.46

Substance: AVQEEARLALSVEPWSSDSG
- amyloid nucleation score: 1.22 ± 0.28

Substance: IYWSLMDWLEV
- amyloid nucleation score: 1.22 ± 0.44

Substance: FFLDYRENISAMLPTTR
- amyloid nucleation score: -0.833 ± 1.1

Substance: GDVGAVRVSCVCWLVLVKRG
- amyloid nucleation score: 0.066 ± 0.76

Substance: ILSRTKVFYNSSCETDVMWL
- amyloid nucleation score: 4.17 ± 0.085

Substance: KTRYALPVDQCYMKNRNMLV
- amyloid nucleation score: 0.295 ± 0.51

Substance: VLVSVVRCDVVAAVRCVQM
- amyloid nucleation score: 3.56 ± 0.11

Substance: MDWVQGAFMPRGSGHWHN
- amyloid nucleation score: -0.327 ± 0.79

Substance: TGHKECVW
- amyloid nucleation score: 0.762 ± 0.47

Substance: FKHLLSMVIVECFIVIVILC
- amyloid nucleation score: -0.041 ± 0.5

Substance: ALSSNPVLSCKLC
- amyloid nucleation score: 6.917 ± 0.027

Substance: ILCYMVGSRIMCVEHSGC
- amyloid nucleation score: 8.588 ± 0.064

Substance: FLIINYRSCRGINFIYARFY
- amyloid nucleation score: inactive

Substance: YQTWDSYVRSTCVYITCPWY
- amyloid nucleation score: 7.133 ± 0.059

Substance: SLGALNKFPRILIVVRYRVC
- amyloid nucleation score: inactive

Substance: YLPTGELIHHYKTSIVLDSA
- amyloid nucleation score: -0.458 ± 0.41

Substance: VGVVVNFRASGPGFE
- amyloid nucleation score: 8.288 ± 0.061

Substance: TRCGE
- amyloid nucleation score: -0.134 ± 0.25

Substance: GVEQFFGRSSAVHL
- amyloid nucleation score: -0.341 ± 0.79

Substance: YRGYAPIYLHLRSSYVPVAL
- amyloid nucleation score: -0.319 ± 0.35

Substance: IWLDSHSSAWISWTIMI
- amyloid nucleation score: -0.585 ± 0.41

Substance: LSNLEAEAWMRAYCIRVKIT
- amyloid nucleation score: 2.16 ± 0.1

Substance: SNKHCWWLDCKHLRIMPRCD
- amyloid nucleation score: -0.363 ± 0.37

Substance: FIKMAITDRCGMAYS
- amyloid nucleation score: -0.752 ± 0.53

Substance: IPEVESIGMGWGWREISGEC
- amyloid nucleation score: 1.42 ± 0.41

Substance: SSMVQR
- amyloid nucleation score: -0.917 ± 0.55

Substance: WWEVIRLSLRS
- amyloid nucleation score: 2.04 ± 0.13

Substance: CFTNIYRKGMMCYGPFTAMT
- amyloid nucleation score: -0.214 ± 1.1

Substance: EYIYLNLYISDNLYSSGKSG
- amyloid nucleation score: 2.88 ± 0.16

Substance: RNSPSRKNL
- amyloid nucleation score: -0.415 ± 0.36

Substance: CNRGLKFAVGFKLLTIPTSL
- amyloid nucleation score: inactive

Substance: VEVYTVSSYVDYVYPDCRGV
- amyloid nucleation score: 0.418 ± 0.62

Substance: NRGEDSPSYPGCHHMKLCIC
- amyloid nucleation score: inactive

Substance: LRSHLEYGRLCVCTQELMRR
- amyloid nucleation score: 4.882 ± 0.041

Substance: RGCGFRIDVGKRWRNRIKSV
- amyloid nucleation score: inactive

Substance: GYIAYATVWGLQDNGSRSIA
- amyloid nucleation score: -0.637 ± 0.25

Substance: YTNSMTHAYTVLWRYMSPTN
- amyloid nucleation score: 3.52 ± 0.084

Substance: IFSIHVVAQTINE
- amyloid nucleation score: 4.64 ± 0.085

Substance: AGMHLRVWHSDTHHWLLLNR
- amyloid nucleation score: 3.76 ± 0.074

Substance: NSSPTSFLLIMSLNCCICVN
- amyloid nucleation score: 8.228 ± 0.024

Substance: MIGNQNQGVCW
- amyloid nucleation score: 0.141 ± 0.29

Substance: NYTWGEIYGH
- amyloid nucleation score: -1.2 ± 0.79

Substance: VVIQPGTYFYLCNIFA
- amyloid nucleation score: -1.58 ± 0.78

Substance: LTSFGDEC
- amyloid nucleation score: -0.153 ± 1.1

Substance: NREANLDDWLGRGQFSMIWW
- amyloid nucleation score: -0.287 ± 0.79

Substance: KDNLDQYFTERRGWWLCEVV
- amyloid nucleation score: -0.043 ± 0.5

Substance: KVRKYSEFSLQSQCDPLGRG
- amyloid nucleation score: 0.455 ± 0.5

Substance: ALLQICCSFIIYHTLLPAPA
- amyloid nucleation score: 6.11 ± 0.064

Substance: DSISFNPYRMLRDNYLLHVC
- amyloid nucleation score: 1.9 ± 0.13

Substance: RDMHLGRTEFVARYWELFRY
- amyloid nucleation score: -0.473 ± 0.78

Substance: TCIVSRRSCTCNRSQSGYRR
- amyloid nucleation score: 1.08 ± 0.22

Substance: FVQSNYDSSF
- amyloid nucleation score: inactive

Substance: LFCRSSC
- amyloid nucleation score: inactive

Substance: FEVDVA
- amyloid nucleation score: inactive

Substance: LKYVVTVHIMFMLSSWSQGC
- amyloid nucleation score: -0.814 ± 0.79

Substance: WRYRHELEACWRHHSNSWYG
- amyloid nucleation score: 3.96 ± 0.052

Substance: FNVNRLAVLSYVSSWSGVIM
- amyloid nucleation score: -0.772 ± 0.35

Substance: MCWVANNVTNPVEVEYERSL
- amyloid nucleation score: -0.821 ± 1.1

Substance: SVYMPSVCNKLFFRGCGYGF
- amyloid nucleation score: 3.04 ± 0.096

Substance: LRPDYLERYFWLWHSTDKLF
- amyloid nucleation score: -1.14 ± 0.49

Substance: TFWNFGLAVQTARGIWALSW
- amyloid nucleation score: 6.57 ± 0.082

Substance: VVPIGETR
- amyloid nucleation score: 1.49 ± 0.47

Substance: FMYRDLYRFMYCVVCAQFFH
- amyloid nucleation score: 4.95 ± 0.05

Substance: ADWMFRFMKERRQMVWNTRI
- amyloid nucleation score: 0.044 ± 1.1

Substance: NAHMSRRGYSSMMRCY
- amyloid nucleation score: inactive

Substance: DLHPGNSNAD
- amyloid nucleation score: -0.146 ± 0.54

Substance: DFYSNEWRGDEICVQLLELV
- amyloid nucleation score: 0.393 ± 0.66

Substance: CCWVSLMRGNRLSTDSSNTL
- amyloid nucleation score: -0.087 ± 0.37

Substance: MRYSPWQGTHILWVLNTTSY
- amyloid nucleation score: 1.82 ± 0.32

Substance: YFGGLANKMLILSWR
- amyloid nucleation score: 0.294 ± 0.24

Substance: FAQPHGCNKMCFCSLRFQYL
- amyloid nucleation score: 3.21 ± 0.12

Substance: VGIFLKSYV
- amyloid nucleation score: -1.32 ± 1

Substance: CVFVPIKLGGDGLTVYLKCI
- amyloid nucleation score: -0.996 ± 0.45

Substance: YDVNGLFTITNPAANYMKPT
- amyloid nucleation score: -1.3 ± 0.34

Substance: TQMTMEGAYPCCVVVP
- amyloid nucleation score: 0.903 ± 0.74

Substance: WYCSHFISFHLESKF
- amyloid nucleation score: 4.76 ± 0.11

Substance: IVWGC
- amyloid nucleation score: 0.493 ± 0.34

Substance: FSVLILFMLIWNNGCYLKED
- amyloid nucleation score: 1.94 ± 0.11

Substance: YRQRFVRKARSFYLWVMALP
- amyloid nucleation score: -0.409 ± 0.45

Substance: KLSYFAFFRSVDGLR
- amyloid nucleation score: 0.508 ± 0.53

Substance: ATGMIPVNLQATIWEVHEVG
- amyloid nucleation score: 2.68 ± 0.21

Substance: FGLTACH
- amyloid nucleation score: -0.579 ± 0.54

Substance: VVSITNINNMSSMRSEPEYK
- amyloid nucleation score: 6.98 ± 0.078

Substance: KVESVKHRQNKGFYCWLVRN
- amyloid nucleation score: -1.25 ± 0.75

Substance: FIINKHSFQRGLFMVSLVSI
- amyloid nucleation score: inactive

Substance: VGSSHQSLEATKWGVVVLCR
- amyloid nucleation score: 6.569 ± 0.049

Substance: NYRRGEKNGVDVNLASKQCT
- amyloid nucleation score: 0.86 ± 0.46

Substance: YCLSSNVGVFKCFNGNVVYS
- amyloid nucleation score: 3.54 ± 0.081

Substance: LHAHYWCRVSKEPCCWCKMG
- amyloid nucleation score: 1.02 ± 0.49

Substance: NYGGPMVNDAFVCTLAGPV
- amyloid nucleation score: inactive

Substance: ASVILTEPFMQGFSIYVGAG
- amyloid nucleation score: -0.746 ± 0.49

Substance: DSTFKYYRTYLKERR
- amyloid nucleation score: -0.357 ± 0.41

Substance: CFGRGLCVSIGVVRCTGGPC
- amyloid nucleation score: 0.119 ± 0.62

Substance: KGCVVFFRFSCNCSMICAWV
- amyloid nucleation score: -0.668 ± 0.48

Substance: ASVLTDPGVRSGRLRVCVGQ
- amyloid nucleation score: -0.121 ± 0.35

Substance: VVRQTVSDCVQASTRSQLLK
- amyloid nucleation score: 0.522 ± 0.35

Substance: MCCGISMVFGDCSQVSVLIR
- amyloid nucleation score: 8.847 ± 0.047

Substance: IIRMNLAGDGVESWGWDRLS
- amyloid nucleation score: 1.12 ± 0.45

Substance: VCFGIKWSMLCWYFMDGGQQ
- amyloid nucleation score: 2.05 ± 0.16

Substance: LFGVSMSKADMSFWQDSGTR
- amyloid nucleation score: 4.77 ± 0.092

Substance: LRVWYDSSAVDMLNVLMSFP
- amyloid nucleation score: 5.737 ± 0.032

Substance: ITIPVNLPLHFLYSGQYHVA
- amyloid nucleation score: -0.307 ± 0.74

Substance: KISVWGYRFLDRH
- amyloid nucleation score: 0.072 ± 0.21

Substance: QYGHCAPDFGSTLLGISST
- amyloid nucleation score: -0.601 ± 0.39

Substance: TFILFGRFEQTKVSVW
- amyloid nucleation score: 3.67 ± 0.075

Substance: VLCRRHSN
- amyloid nucleation score: 1.41 ± 0.38

Substance: VMGEKIWSAWYTRDDQLCGS
- amyloid nucleation score: 0.547 ± 0.36

Substance: CYAPKYGRHWP
- amyloid nucleation score: 0.708 ± 0.49

Substance: LNIHLFSVTGLCDEC
- amyloid nucleation score: -0.344 ± 0.76

Substance: NTTMWGHVYMHLANMYTEFC
- amyloid nucleation score: inactive

Substance: KDLRWVLRWC
- amyloid nucleation score: 0.912 ± 0.26
